Reference: patent publication US10287362
Positions count from the first letter of the chain named. Where two headings read alike, the source gives them in different places.

Assays:
[1] = biological target: T1, CD73 V144K+K180A (human, UniProt P21589); experiment: SPR, bivalent
T1 chain: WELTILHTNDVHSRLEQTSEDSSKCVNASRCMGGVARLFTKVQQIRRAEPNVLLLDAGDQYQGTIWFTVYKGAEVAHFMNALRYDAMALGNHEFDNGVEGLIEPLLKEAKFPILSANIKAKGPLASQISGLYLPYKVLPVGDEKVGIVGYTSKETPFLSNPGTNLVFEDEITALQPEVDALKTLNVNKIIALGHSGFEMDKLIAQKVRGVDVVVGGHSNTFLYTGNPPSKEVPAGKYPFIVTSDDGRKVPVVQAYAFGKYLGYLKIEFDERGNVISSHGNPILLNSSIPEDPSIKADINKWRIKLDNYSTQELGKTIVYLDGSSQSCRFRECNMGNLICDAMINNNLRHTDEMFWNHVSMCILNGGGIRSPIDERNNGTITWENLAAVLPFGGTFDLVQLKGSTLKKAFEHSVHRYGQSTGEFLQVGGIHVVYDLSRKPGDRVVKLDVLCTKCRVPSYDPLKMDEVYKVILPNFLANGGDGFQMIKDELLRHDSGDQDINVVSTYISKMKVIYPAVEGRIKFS

[2] = biological target: T2, human CD73 on MDA-MB-231 cells (human, UniProt P21589); experiment: FACS
T2 chain: T1 chain with K144V, A180K

[3] = biological target: T3, human CD73 ECD (human, UniProt P21589); experiment: SPR
T3 chain: T1 chain with K144V, A180K

[4] = biological target: T4, CD73 K180A+N185G (human, UniProt P21589); experiment: SPR, bivalent
T4 chain: T1 chain with K144V, N185G

[5] = biological target: T5, CD73 N185G (human, UniProt P21589); experiment: SPR, bivalent
T5 chain: T1 chain with K144V, A180K, N185G

[6] = biological target: T6, CD73 V144K (human, UniProt P21589); experiment: SPR, bivalent
T6 chain: T1 chain with A180K

[7] = biological target: T7, murine CD73 ECD (mouse, UniProt Q61503); experiment: SPR
T7 chain: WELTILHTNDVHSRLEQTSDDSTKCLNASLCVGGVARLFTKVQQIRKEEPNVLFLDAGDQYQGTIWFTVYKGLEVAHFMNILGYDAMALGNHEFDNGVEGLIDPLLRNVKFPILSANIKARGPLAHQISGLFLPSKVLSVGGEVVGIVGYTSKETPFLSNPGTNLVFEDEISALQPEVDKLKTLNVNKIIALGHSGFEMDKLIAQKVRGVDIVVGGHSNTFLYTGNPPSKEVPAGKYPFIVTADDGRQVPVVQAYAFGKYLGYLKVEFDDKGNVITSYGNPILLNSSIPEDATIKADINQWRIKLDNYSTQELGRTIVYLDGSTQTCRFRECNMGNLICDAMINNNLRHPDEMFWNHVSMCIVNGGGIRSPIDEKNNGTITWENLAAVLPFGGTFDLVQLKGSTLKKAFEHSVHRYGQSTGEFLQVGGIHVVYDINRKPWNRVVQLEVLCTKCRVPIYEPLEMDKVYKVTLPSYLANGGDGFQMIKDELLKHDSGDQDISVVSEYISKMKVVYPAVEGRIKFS

[8] = biological target: T3, human CD73 ECD; experiment: SPR, bivalent
[9] = biological target: T8, murine CD73 on 4T1 cells (mouse, UniProt Q61503); experiment: FACS
T8 chain: T7 chain

[10] = biological target: T8, murine CD73 on 4T1 cells; experiment: FACS
[11] = biological target: T9, CD73 K180A (human, UniProt P21589); experiment: SPR, bivalent
T9 chain: T1 chain with K144V

[12] = biological target: T10, CD73 V144K+N185G (human, UniProt P21589); experiment: SPR, bivalent
T10 chain: T1 chain with A180K, N185G

[13] = biological target: T2, human CD73 on MDA-MB-231 cells; experiment: FACS
[14] = biological target: T7, murine CD73 ECD; experiment: SPR
[15] = biological target: T3, human CD73 ECD; experiment: SPR
[16] = biological target: T3, human CD73 ECD

B1: MEDI9447 (73combo3, clone 10.3) (antibody, V domains shown)
VH: EVQLLESGGGLVQPGGSLRLSCAASGFTFSSYAYSWVRQAPGKGLEWVSAISGSGGRTYYADSVKGRFTISRDNSKNTLYLQMNSLRAEDTAVYYCARLGYGRVDEWGRGTLVTVSS
VL: QSVLTQPPSASGTPGQRVTISCSGSLSNIGRNPVNWYQQLPGTAPKLLIYLDNLRLSGVPDRFSGSKSGTSASLAISGLQSEDEADYYCATWDDSHPGWTFGGGTKLTVL
- Kd [1]: 2.68 nM
- Kd [2]: 0.154 nM
- Kd [3]: 0.004 nM
- binding result [4]: no binding
- Kd [5]: 0.0269 nM
- Kd [6]: 0.0814 nM
- Kd [7]: 0.001 nM
- Kd [8]: 0.0042 nM
- Kd [9]: 0.113 nM
- Kd [10]: 0.113 nM
- Kd [11]: 0.0435 nM
- binding result [12]: no binding
- Kd [13]: 0.154 nM
- Kd [14]: 0.0009 nM
- Kd [15]: 0.0041 nM

B2: MEDI9447 Fab (antibody, V domains shown)
VH: B1 VH
VL: B1 VL
- Kd [16]: 0.327 nM
